Measured values published in patent US12624112 (MABWELL SHANGHAI BIOSCIENCE, dated 2026).
Where a chain is given by its changes, count along the chain named.

B1: 5886-156-H1L0 (antibody, human IgG4 S228P, kappa, V domains shown)
VH: QVQLQESGPGLVKPSQTLSLTCTVSGYSITSDYAWNWIRQPPGKGLEWIGYIDYSGSTTYNPSLKSRVTISRDTSKNQFSLKLSSVTAADTAVYYCASTVIDSMDYWGQGTLVTVSS
VL: DIVLTQSPASLAVSPGQRATITCRASKSVSTSGHSYMHWYQQKPGQPPKLLIYLASNLESGVPARFSGSGSGTDFTLTINPVEANDTANYYCQHSREFPFTFGQGTKVEIKR
notes: Humanized antibody expressed in CHO-K1, purified by protein A
B2: 5887-41-H1L0 (antibody, human IgG4 S228P, kappa, V domains shown)
VH: B1 VH with N36D, D53R, S57D, T59Y, S98T, V100M, I101M, S103T
VL: B1 VL with H34N, F100L, V108L
notes: Humanized antibody
B3: 5888-379-H1L0 (antibody, human IgG4 S228P, kappa, V domains shown)
VH: QVQLVQSGAEVKKPGASVKVSCKASGYTFINYGMNWVRQAPGQRLEWMGWINTYIGEPTYGDNFKGRVTITRDTSASTAYMELSSLRSEDTAVYYCAREGEGFAYWGQGTLVTVSS
VL: DIQMTQSPSSLSASVGDRVTITCKSSQSLLYSGNQNNYLAWYQQKPGKVPKLLIYGASTRESGVPSRFSGSGSGTDFTLTISSLQPEDVATYYCQNDHSYPYTFGGGTKVEIKR
notes: Humanized antibody
B4: 5888-379-H2L1 (antibody, human IgG4 S228P, kappa, V domains shown)
VH: B3 VH with E101D, G102A
VL: B3 VL with V89L
notes: Humanized antibody

target: T1, ST2 on the effector cells (KU812, KU812/NF-κB-1#, HUVEC, HMC-1) (human, UniProt Q01638 19-556); experiment: cell-based or functional assay
T1 sequence (looked up): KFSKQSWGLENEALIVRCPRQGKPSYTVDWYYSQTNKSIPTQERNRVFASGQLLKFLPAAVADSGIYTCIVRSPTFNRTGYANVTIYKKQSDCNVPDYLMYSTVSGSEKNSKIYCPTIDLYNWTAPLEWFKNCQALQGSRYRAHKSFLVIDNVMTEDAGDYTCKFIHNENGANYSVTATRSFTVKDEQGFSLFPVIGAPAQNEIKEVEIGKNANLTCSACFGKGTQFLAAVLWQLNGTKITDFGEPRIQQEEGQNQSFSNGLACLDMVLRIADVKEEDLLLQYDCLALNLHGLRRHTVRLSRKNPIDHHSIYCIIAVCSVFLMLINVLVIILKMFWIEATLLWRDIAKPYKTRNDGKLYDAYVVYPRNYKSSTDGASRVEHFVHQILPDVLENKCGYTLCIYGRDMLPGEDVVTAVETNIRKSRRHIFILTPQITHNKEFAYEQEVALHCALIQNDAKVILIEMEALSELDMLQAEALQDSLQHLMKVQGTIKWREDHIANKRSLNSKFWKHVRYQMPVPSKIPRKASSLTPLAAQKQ

IC50, inhibition of KU812-IL5 production promoted by IL-33 (human IL33-his) | Maximum inhibition rate, KU812-IL5 production by IL-33 | Relative activity compared with CNTO7160, KU812-IL5 production by IL-33 | Binder
0.0354 µg/mL | 98.1% | 181% | B1
0.0699 µg/mL | 97.3% | 91.7% | B2
0.0874 µg/mL | 99.4% | 131% | B3
0.0839 µg/mL | 98% | 121% | B4

target: T1, ST2 on the effector cells (KU812, …); experiment: cell-based or functional assay; remark: another data set of the same source

IC50, inhibition of activation of KU812-NF-κB reporter gene by IL33 | Maximum inhibition rate, KU812-NF-κB reporter gene | Relative activity compared with CNTO7160, KU812-NF-κB reporter gene | Binder
0.478 µg/mL | 92.5% | 41.9% | B1
0.0554 µg/mL | 89.2% | 362% | B2

target: T1, ST2 on the effector cells (KU812, …); experiment: cell-based or functional assay; remark: another data set of the same source

IC50, inhibition of KU812-IL5 production promoted by oxidized IL33 | Maximum inhibition rate, KU812-IL5 production by oxidized IL33 | Relative activity, KU812-IL5 production by oxidized IL33 | Binder
0.0285 µg/mL | 101% | 77.5% | B1
0.0337 µg/mL | 101% | 65.4% | B2
0.0161 µg/mL | 101% | 137% | B3
0.0228 µg/mL | 101% | 96.8% | B4

target: T1, ST2 on the effector cells (KU812, …); experiment: cell-based or functional assay; remark: another data set of the same source

IC50, inhibition of KU812-IL5 production promoted by reduced IL33 | Maximum inhibition rate, KU812-IL5 production by reduced IL33 | Relative activity, KU812-IL5 production by reduced IL33 | Binder
0.752 µg/mL | 93.4% | 195% | B1
0.706 µg/mL | 78.6% | 208% | B2
2.87 µg/mL | 96.7% | 51.1% | B3
2.87 µg/mL | 96.7% | 51.1% | B4

target: T1, ST2 on the effector cells (KU812, …); experiment: cell-based or functional assay; remark: another data set of the same source

IC50, inhibition of HUVEC-IL6 production promoted by IL33 | Maximum inhibition rate, HUVEC-IL6 production by IL33 | Relative activity, HUVEC-IL6 production by IL33 | Binder
4.05 µg/mL | 87.9% | 67.3% | B1
1.31 µg/mL | 93.2% | 208% | B2
16.1 µg/mL | 83% | 16.9% | B3
26.1 µg/mL | 71.6% | 10.4% | B4

target: T1, ST2 on the effector cells (KU812, …); experiment: cell-based or functional assay; remark: another data set of the same source

IC50, inhibition of HMC-1 IL8 production promoted by IL33 | Maximum inhibition rate, HMC-1 IL8 production by IL33 | Relative activity, HMC-1 IL8 production by IL33 | Binder
0.177 µg/mL | 81% | 56.9% | B1
0.123 µg/mL | 77.8% | 81.6% | B2
0.334 µg/mL | 85.6% | 30.1% | B3
0.23 µg/mL | 90.2% | 43.8% | B4

target: Human ST2-fc (human) (UniProt Q01638); experiment: competition ELISA, coated ST2-fc, competitor IL33-his

IC50 | Maximum inhibition rate | Relative activity compared with CNTO7160 | Binder
1.22 µg/mL | 89.2% | 103% | B1
0.58 µg/mL | 92.8% | 216% | B2
0.465 µg/mL | 89.1% | 188% | B3
0.427 µg/mL | 84.8% | 206% | B4

target: T2, Human ST2-his (human, UniProt Q01638-2 19-328, limits assumed); experiment: SPR Biacore X100, ratio of kd at pH 5.5 to kd at pH 7.4
T2 construct: Expressed in CHO-K1; The printed range starts at Met1; also called human ST2 fused with a 6-histidine tag at the C-terminus
T2 sequence: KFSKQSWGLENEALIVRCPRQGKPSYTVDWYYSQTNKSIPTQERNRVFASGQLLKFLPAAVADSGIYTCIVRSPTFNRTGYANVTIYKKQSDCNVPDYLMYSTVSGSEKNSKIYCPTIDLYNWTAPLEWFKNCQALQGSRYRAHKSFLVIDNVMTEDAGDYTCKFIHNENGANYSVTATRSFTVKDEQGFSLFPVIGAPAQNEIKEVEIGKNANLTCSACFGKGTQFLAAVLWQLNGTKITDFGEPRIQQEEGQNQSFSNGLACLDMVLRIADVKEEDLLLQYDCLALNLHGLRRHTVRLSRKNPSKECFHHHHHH
Method: (§1) The experiment on the interaction between the anti-human ST2 antibodies and human ST2-his was performed using Biacore X100.
(§2) Each anti-human ST2 antibody was diluted to 2 µg/mL and captured on the surface of a protein A chip for a capture time of 60 s. Following the antibody capture, a solution of human ST2-his (2-fold gradient dilution from a starting concentration of 20 nM, to obtain 6 concentrations in total) was injected. Association was monitored for 180 s and dissociation was monitored for 700 s, and the sensor surface was regenerated by injecting a solution of glycine at pH 2.0. Kinetic data were analyzed using a simple 1:1 binding model.

kd ratio of pH 5.5/pH 7.4 | Binder
1.03 | B1
1 | B2
7.26 | B3
11.9 | B4

target: T2, Human ST2-his; experiment: SPR Biacore X100, antibody captured on protein A chip, human ST2-his injected, pH 7.4
Method: as §1, §2

Kd | koff | kon | Binder
0.275 nM | 0.000272 s⁻¹ | 990000 M⁻¹ s⁻¹ | B1
0.214 nM | 9.98e-05 s⁻¹ | 467000 M⁻¹ s⁻¹ | B2
0.452 nM | 0.000351 s⁻¹ | 777000 M⁻¹ s⁻¹ | B3
0.495 nM | 0.000485 s⁻¹ | 979000 M⁻¹ s⁻¹ | B4

target: T2, Human ST2-his; experiment: SPR Biacore X100, antibody captured on protein A chip, human ST2-his injected, dissociation at pH 5.5
Method: as §1, §2

Kd | koff | kon | Binder
0.276 nM | 0.000279 s⁻¹ | 1.01e+06 M⁻¹ s⁻¹ | B1
0.161 nM | 0.0001 s⁻¹ | 622000 M⁻¹ s⁻¹ | B2
1.43 nM | 0.00255 s⁻¹ | 1.79e+06 M⁻¹ s⁻¹ | B3
1.67 nM | 0.00575 s⁻¹ | 3.46e+06 M⁻¹ s⁻¹ | B4
